# Measured values reported in the nanobody polyreactivity screen of Harvey et al. (2022).
# Assay: yeast display, Sf9 membrane polyspecificity reagent, FACS + sequencing; frameworks hold sequencing errors
# Method in brief: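 After 36–48 hours of galactose induction, yeast (Saccharomyces cerevisiae BJ5465) displaying a synthetic nanobody library were stained at 4 °C for 1 hour with 10% biotinylated, detergent-solubilized Sf9 membrane reagent. Streptavidin microbeads enriched the stained cells before FACS sorting into low and high (top ~1%) gates on anti-HA and streptavidin fluorescence. Each clone's polyreactivity label reflects its gate of origin.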
row,Sequence,polyreactivity (PSR sort gate)
1,QVQLVESGGGLVQAGGSLRLSCAASGSTFAFNAMGWYRQAPGKERELVATISQSGGSTYYADSVKGRFTISRDNAKNTVYLQMNSLKPEDTAVYYCAKRYWSKWYGRYEYWGQGTQVTVSS,low polyreactivity
2,QVQLVESGGGLVQAGGSLRLSCAASGSTFAFYDMGWYRQAPGKERELVAAISQSDGDTYYADSVKGRFTISRDNAKNTVYLQMNSLKPEDTAVYYCAAETSHNPEYERGSDYWGQGTQVTVSS,low polyreactivity
3,QVQLVESGGGLVQAGGSLRLSCAASGSTFAGNAMGWYRQAPGKERELVAGITSSGARTYYADSVKGRFTISRDNAKNTVYLQMNSLKPEDTAVYYCNKYHFSPYDYWGQGTQVTVSS,high polyreactivity
4,QVQLVESGGGLVQAGGSLRLSCAASGSTFAGYAMGWYRQAPGKERELVAAISKRGTSTYYADSVKGRFTISRDNAKNTVYLQMNSLKPEDTAVYYCAARTYASYFKLYYWGQGTQVTVSS,high polyreactivity
5,QVQLVESGGGLVQAGGSLRLSCAASGSTFAHNAMGWYRQAPGKERELVAAISRRGGSTYYADSVKGRFTISRDNAQNTVYLQMNSLKPEDTAVYYCNAVAHNVRVYRFYPGWAGLDYWGQGTQVTVSS,high polyreactivity
6,QVQLVESGGGLVQAGGSLRLSCAASGSTFAHNAMGWYRQAPGKERELVATISGSGGTTRYADSVKGRFTISRDNAKNTVYLQMNSLKPEDTAGYYCAAQSSTPKLYDYWGQGTQVTVSS,low polyreactivity
7,QVQLVESGGGLVQAGGSLRLSCAASGSTFAHYAMGWYRQAPGKERELVAAITTSGSSTYYADSVKGRFTISRDNAKNTVYLQMNSLKPEDTAVYYCNARGSYYHYRGERNYWGQGTQVTVSS,low polyreactivity
8,QVQLVESGGGLVQAGGSLRLSCAASGSTFAKNAMGLYRQAPGKERELVAAISRGGNTYYADSVKGRFTISRDNAKNTVYLQMNSLKPEDTAVYYCAKLPYTRNYLGSLYDYWGQCTQVTVSS,high polyreactivity
9,QVQLVESGGGLVQAGGSLRLSCAASGSTFAKNTMGWYRQAPGKERELVAAISTSGGSTYYADSVKVRFTISRDNAKNTVYLQMNSLKPEDTAVYYCAARAFQYYRAMDYWGQGTQVTVSS,low polyreactivity
10,QVQLVESGGGLVQAGGSLRLSCAASGSTFAKYAMGWYRQAPGKERELVASIRLSGGSTYYADSVKGRFTISRDNAKNTVYLQMNSLKPEDTALYYCHKQFATFFYGFDYYYWGQGTQVTVSS,low polyreactivity
11,QVQLVESGGGLVQAGGSLRLSCAASGSTFAKYTMGWYRQAPGKERELVAAISQRGGSTYYADSVKGRFTISRDNAKNTVYLQMNSLKPEDTAVYYCNVRAYAWRYEYWGQGTQVTVSS,high polyreactivity
12,QVQLVESGGGLVQAGGSLRLSCAASGSTFALYAMGGSRPAPGKERELVAVINSGGSTYYADSVKGRFTISRDNAKNTVYLLMNSLKPEDTAVSYCATVYVWAYRGTDSSYRFDYWGKGTQVTVSS,low polyreactivity
13,QVQLVESGGGLVQAGGSLRLSCAASGSTFALYAMGWSRPAPGKERELVAAITWSGTGTYYADSVKGRFTISRDNAKNTVYLQMNSLKPEDTAVYYCNAEYWWWGLGNDYWGQGTQVTVSS,low polyreactivity
14,QVQLVESGGGLVQAGGSLRLSCAASGSTFALYGMGWYRQAPGKERELVAAINSGVSTNYADSVKGRFTISRDNAKNTVYLQMNSLKPEDTAVYYCNADYYIAPYDSWGQGTQVTVSS,low polyreactivity
15,QVQLVESGGGLVQAGGSLRLSCAASGSTFAPYAMGWYRQAPGKERELVASISWRGGRTYYADSVKGRFTISRDNAKNTVYLQMNSLKPEDTAVYYCATSRYRVDRWGPPYRYDYWGQGTQVTVSS,high polyreactivity
16,QVQLVESGGGLVQAGGSLRLSCAASGSTFARNAMGWYRPAPGKERELVAAITNAGDTNYADSVKGRFTISRDNAKNTVYLQMNSLKPEDTAVYYCAADTRFYSGRGTVSGDYWGQGTQVTVSS,low polyreactivity

row,Sequence,polyreactivity (PSR sort gate)
1,QVQLVESGGGLVQAGGSLRLSCAASGSTFARNAMGWYRQAHGKERELVAAITNAGDTNYADSVKGRFTISRDNAKNTVYLQMNSLKPVDTAVYYCAADPILIDEYWGQGTQVTVSS,low polyreactivity
2,QVQLVESGGGLVQAGGSLRLSCAASGSTFARNAMGWYRQAPGKERELVAAISSSGGRTYYADSVKGRFTISRDNAKNTVYLQMNSLKPEDTAVYSCAARTFGSVHSYRGGYWGQGTQVTVSS,high polyreactivity
3,QVQLVESGGGLVQAGGSLRLSCAASGSTFARNAMGWYRQAPGKERELVAAITNAGDTNYADSVKGRFTISRDNAKNTVYLQMNSLKPEDTAVYYCAAEPILIDEYWGQGTQVTVSS,low polyreactivity
4,QVQLVESGGGLVQAGGSLRLSCAASGSTFARYAMGWYRQAPGKERELVAAISGGGGSTYYADSVKGRFTISRDNAKNTVYLQMNSLKPEDTAVYYCAKLLARGNRYDSWGQGTQVTVSS,high polyreactivity
5,QVQLVESGGGLVQAGGSLRLSCAASGSTFARYAMGWYRQAPGKERELVAAISRRGGSTYYADSVKGRFTISRDNAKNTVYLQMNSLKPEDTAVYYCAARYGIISSFEYDYWGQGTQVTVSS,high polyreactivity
6,QVQLVESGGGLVQAGGSLRLSCAASGSTFARYAMGWYRQAPGKERELVAAISRSGSNTYYADSVKGRFTISRDNAKNTVYLQMNSLKPEDTAVYYCAAVQPGQRTVAYDYWGQGTLVTVSS,high polyreactivity
7,QVQLVESGGGLVQAGGSLRLSCAASGSTFASNAMGWYRQAPGKERELVAAISKRGGSTYYADSVKGRFTISRDNAKNTVYLQMNSLKPEDTSVYYCNADWTRSQYDYWGQGTQVTVSS,high polyreactivity
8,QVQLVESGGGLVQAGGSLRLSCAASGSTFATNTMGWYRQAPGKERELVAAITSGGSTYYADSVKGRFTISRDNAKNTVYLQMNSLKPEDTAVYYCAVRGVYYYHRAFDYWGQGTQVTVSS,high polyreactivity
9,QVQLVESGGGLVQAGGSLRLSCAASGSTFATYTMGWYRQAPGKERELVAAISSRGGSTYYADSVKGRFTISRDNAKNTGYLQMNSLKPEDTAVYYCNARRSTDPARYYWGQGSQVTVSS,high polyreactivity
10,QVQLVESGGGLVQAGGSLRLSCAASGSTFATYTMGWYRQAPGKERELVATISRSGTTTYYADSVKGRFTISRDNAKYTVYLQMNSLKPEDTAVYYCNTLRAYWTYHFYGAVRDGYDYWGQGTQVTVST,low polyreactivity
11,QVQLVESGGGLVQAGGSLRLSCAASGSTFAVNAMRSYRQAPGKEREFVAAISFGTGSTYYADSVKGRFTISRDNAKKTVYLQMNSLKPEDTAVYYCNAEASGYYWWWGYDYWGQGTQVTVSS,low polyreactivity
12,QVQLVESGGGLVQAGGSLRLSCAASGSTFAWYAMGWYRQAPGKERELVAAISRTGRTYYADSVKGRFTISRDNAKNTVYLQMNSLKPEDTAVYYCAARIERFYRDQRYDYWGQGTQVTVSS,high polyreactivity
13,QVQLVESGGGLVQAGGSLRLSCAASGSTFAYNAMGWYRQAPGKERELVAAISWGDGITYYADSVKGRFTISRDNAKNTVYLQMNSLKPEDTAVITRDFGYWGQGTQVTVSS,low polyreactivity
14,QVQLVESGGGLVQAGGSLRLSCAASGSTFAYNAMGWYRQAPGKERELVASISWTGGSTYYADSVKGRFTISRDNAKNTVYLQMNSLKPEDTAVYYCAVDWLEGYEFDSWGQGTQVTVSS,low polyreactivity
15,QVQLVESGGGLVQAGGSLRLSCAASGSTFAYYAMGWYRQAPGKERELVAAIDDTGSTNYADSVKGRFTISRDNAKYTVFLQMNSLKPEYTAVYYCNAQPDGTYDYWGQGTQVTVSS,low polyreactivity
16,QVQLVESGGGLVQAGGSLRLSCAASGSTFAYYTMGWYRQAPGKERELVAAISKSGGSTTYADSVKGRFTISRDNAKNTVYLQMNSLKPEDTAVYYCAAYDRVENYNYWGQGTQVTVSS,high polyreactivity
